Experimental data taken from patent US20080293631.

Target: T1, endothelial protein C receptor (UniProt Q9UNN8)
T1 sequence: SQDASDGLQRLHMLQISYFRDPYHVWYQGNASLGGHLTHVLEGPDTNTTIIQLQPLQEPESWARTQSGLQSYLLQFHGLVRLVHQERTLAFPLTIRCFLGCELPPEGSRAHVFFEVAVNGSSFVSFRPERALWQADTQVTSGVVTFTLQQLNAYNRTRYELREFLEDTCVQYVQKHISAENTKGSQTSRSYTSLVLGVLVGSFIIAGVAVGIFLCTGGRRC

With Activated protein C the “LPS-induced NF-κB activity (western blot for the active form of NF-κB in lysates of RA monocytes)” value was “APC's inhibitory effect on LPS-induced NF-κB activity was almost totally reversed by RCR252, whereas RCR92 had only limited effect”.
